Patent US20150315292A1 (VANDERBILT UNIVERSITY, published 2015)

Experiments:
[1] = target: T1, human fXII with the kringle domain replaced with the corresponding domain from HGFA (human, UniProt P00748 20-216; Q04756 286-367; P00748 296-615, limits assumed); test: Western blot after SDS-PAGE
T1 construct: Expressed in human fibroblasts (HEK293) and blotted from conditioned medium; also called fXII/HGFA kringle domain chimera; KNG
T1 sequence (looked up): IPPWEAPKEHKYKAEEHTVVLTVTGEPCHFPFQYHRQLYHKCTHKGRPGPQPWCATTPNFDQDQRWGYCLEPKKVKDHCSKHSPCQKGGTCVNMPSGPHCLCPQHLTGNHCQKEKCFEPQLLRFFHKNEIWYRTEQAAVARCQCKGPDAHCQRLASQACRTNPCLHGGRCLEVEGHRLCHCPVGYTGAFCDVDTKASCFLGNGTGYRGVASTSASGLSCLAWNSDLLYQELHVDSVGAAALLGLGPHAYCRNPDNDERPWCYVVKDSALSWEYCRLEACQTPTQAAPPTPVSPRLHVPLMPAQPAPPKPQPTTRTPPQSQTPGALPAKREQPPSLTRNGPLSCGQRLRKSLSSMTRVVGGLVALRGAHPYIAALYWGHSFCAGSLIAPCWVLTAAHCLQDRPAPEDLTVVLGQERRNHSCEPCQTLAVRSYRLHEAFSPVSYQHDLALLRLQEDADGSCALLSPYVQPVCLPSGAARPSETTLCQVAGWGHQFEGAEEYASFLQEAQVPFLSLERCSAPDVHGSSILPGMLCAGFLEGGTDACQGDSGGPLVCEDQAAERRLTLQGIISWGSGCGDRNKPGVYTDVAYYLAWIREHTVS
Description: (§1) AB043 and AB042 both recognize baboon and human fXII, indicating they can be used for studies in baboon thrombosis models. […] Chimeras in which individual fXII domains were replaced with those of HGFA were expressed in human fibroblasts.

[2] = target: T2, human fXII with the EGF2 domain replaced with the corresponding domain from HGFA (human, UniProt P00748 20-173; Q04756 241-279; P00748 211-615, limits assumed); test: Western blot after SDS-PAGE
T2 construct: Expressed in human fibroblasts (HEK293) and blotted from conditioned medium; also called fXII/HGFA chimera for the EGF2 domain
T2 sequence (looked up): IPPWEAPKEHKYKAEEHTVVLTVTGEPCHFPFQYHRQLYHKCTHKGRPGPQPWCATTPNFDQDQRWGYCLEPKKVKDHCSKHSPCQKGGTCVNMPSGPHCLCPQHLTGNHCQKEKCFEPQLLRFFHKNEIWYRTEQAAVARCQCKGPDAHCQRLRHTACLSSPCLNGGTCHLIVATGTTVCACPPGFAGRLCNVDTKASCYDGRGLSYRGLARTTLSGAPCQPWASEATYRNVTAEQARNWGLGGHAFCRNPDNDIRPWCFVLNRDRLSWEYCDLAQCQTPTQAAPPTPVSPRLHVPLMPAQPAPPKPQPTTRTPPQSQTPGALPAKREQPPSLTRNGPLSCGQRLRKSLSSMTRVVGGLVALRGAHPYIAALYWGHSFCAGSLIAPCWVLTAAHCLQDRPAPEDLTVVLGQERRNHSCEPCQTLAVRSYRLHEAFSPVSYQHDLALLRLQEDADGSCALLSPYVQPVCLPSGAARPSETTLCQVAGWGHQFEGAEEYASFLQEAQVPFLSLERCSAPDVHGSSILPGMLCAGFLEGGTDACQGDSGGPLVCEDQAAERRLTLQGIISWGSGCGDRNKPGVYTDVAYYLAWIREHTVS
Description: as §1

B1: monoclonal anti-human fXII antibody AB042 (antibody, V domains shown)
VH: EVQLQQSGAELVRPGASVKLSCTASGFNIKDDYMHWVKQRPEQGLEWIGWIDPENGDTEYASKFQGKATITSDTSSNTAYLQLSSLTSEDTAVYYCTENYYGSSFFAYWGQGTLVTVSA
VL: DIVMTQATPSVPVTPGESVSISCRSSKSLLHSNGITYLYWFLQRPGQSPQRLIYYMSNLASGVPDRFSGRGSGTDFTLRISRVEAEDVGVYYCMQSLEYPYTFGGGTKLEIKR
notes: Mouse hybridoma IgG raised in fXII knockout mice immunized with human fXII
binding result [1]: no binding | binding result [2]: no binding
